According to patent US20190309079A1 (Regeneron, published 2019):

Columns and labels:
[1] = biological target: rat LEPR extracellular domain expressed with a C-terminal myc-myc-hexahistidine tag (rLEPR.mmh) (rat, UniProt Q62959 22-839); test: SPR, captured mAb, 25C and 37C
Experimental: (§1) Equilibrium dissociation constants (KD values) for LEPR binding to purified anti-LEPR monoclonal antibodies were determined using a real-time surface plasmon resonance biosensor using a Biacore 4000 instrument. All binding studies were performed in 10 mM HEPES, 150 mM NaCl, 3 mM EDTA, and 0.05% v/v Surfactant Tween-20, pH 7.4 (HBS-ET) running buffer at 25° C. and 37° C. The Biacore sensor surface was first derivatized by amine coupling with a monoclonal mouse anti-human Fc antibody (GE, # BR-1008-39) to capture anti-LEPR monoclonal antibodies. […] Kinetic association (kₐ) and dissociation (kd) rate constants were determined by fitting the real-time binding sensorgrams to a 1:1 binding model with mass transport limitation using Scrubber 2.0c curve-fitting software. Binding dissociation equilibrium constants (KD) and dissociative half-lives (t½) were calculated from the kinetic rate constants as: […]

[2] = biological target: mouse LEPR extracellular domain expressed with a C-terminal myc-myc-hexahistidine tag (mLEPR.mmh) (mouse, UniProt P48356 22-839); test: SPR, captured mAb, 25C and 37C
Experimental: as §1

[3] = biological target: extracellular domain of Macaca fascicularis LEPR (amino acids 22-837 of XP_005543194.1, T827A) fused with the … (Macaca fascicularis; human); test: cell-based or functional assay
[4] = biological target: T1, extracellular domain of human LEPR (amino acids 22-839 of P48357, Isoform B) with N-terminal myc-myc tag, … (human, UniProt P48357 22-839, GPI anchor at the C-terminus); test: FACS, 70 nM Ab, HEK293/hLEPR-GPI, no Leptin
T1 construct: also called HEK293/Mycx2-hLepR(Ecto)-GPI anchored cells
T1 sequence: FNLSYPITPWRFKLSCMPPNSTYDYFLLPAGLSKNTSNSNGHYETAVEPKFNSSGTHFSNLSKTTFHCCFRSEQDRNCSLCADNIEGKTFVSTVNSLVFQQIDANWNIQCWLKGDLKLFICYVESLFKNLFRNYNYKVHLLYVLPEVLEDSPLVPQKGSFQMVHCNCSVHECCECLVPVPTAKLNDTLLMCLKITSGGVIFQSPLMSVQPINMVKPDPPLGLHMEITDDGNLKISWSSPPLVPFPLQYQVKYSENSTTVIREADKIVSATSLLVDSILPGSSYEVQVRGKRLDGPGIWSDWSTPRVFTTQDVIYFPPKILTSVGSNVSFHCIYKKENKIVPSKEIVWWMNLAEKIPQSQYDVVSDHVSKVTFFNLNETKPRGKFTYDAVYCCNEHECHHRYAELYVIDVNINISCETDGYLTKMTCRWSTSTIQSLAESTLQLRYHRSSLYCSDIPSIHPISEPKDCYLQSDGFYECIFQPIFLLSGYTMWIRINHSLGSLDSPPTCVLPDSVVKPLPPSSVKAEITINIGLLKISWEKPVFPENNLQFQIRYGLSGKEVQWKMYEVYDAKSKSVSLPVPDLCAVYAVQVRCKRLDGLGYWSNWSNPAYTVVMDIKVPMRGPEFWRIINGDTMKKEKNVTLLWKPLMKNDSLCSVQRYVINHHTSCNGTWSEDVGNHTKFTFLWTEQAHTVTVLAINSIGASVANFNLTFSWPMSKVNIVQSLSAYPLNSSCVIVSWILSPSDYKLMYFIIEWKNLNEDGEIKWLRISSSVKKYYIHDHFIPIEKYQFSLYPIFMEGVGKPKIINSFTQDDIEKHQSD

[5] = biological target: T2, wild-type LEPR on HEK293 reporter cells (UniProt P48357 22-1165, limits assumed); test: cell-based or functional assay
T2 sequence (looked up): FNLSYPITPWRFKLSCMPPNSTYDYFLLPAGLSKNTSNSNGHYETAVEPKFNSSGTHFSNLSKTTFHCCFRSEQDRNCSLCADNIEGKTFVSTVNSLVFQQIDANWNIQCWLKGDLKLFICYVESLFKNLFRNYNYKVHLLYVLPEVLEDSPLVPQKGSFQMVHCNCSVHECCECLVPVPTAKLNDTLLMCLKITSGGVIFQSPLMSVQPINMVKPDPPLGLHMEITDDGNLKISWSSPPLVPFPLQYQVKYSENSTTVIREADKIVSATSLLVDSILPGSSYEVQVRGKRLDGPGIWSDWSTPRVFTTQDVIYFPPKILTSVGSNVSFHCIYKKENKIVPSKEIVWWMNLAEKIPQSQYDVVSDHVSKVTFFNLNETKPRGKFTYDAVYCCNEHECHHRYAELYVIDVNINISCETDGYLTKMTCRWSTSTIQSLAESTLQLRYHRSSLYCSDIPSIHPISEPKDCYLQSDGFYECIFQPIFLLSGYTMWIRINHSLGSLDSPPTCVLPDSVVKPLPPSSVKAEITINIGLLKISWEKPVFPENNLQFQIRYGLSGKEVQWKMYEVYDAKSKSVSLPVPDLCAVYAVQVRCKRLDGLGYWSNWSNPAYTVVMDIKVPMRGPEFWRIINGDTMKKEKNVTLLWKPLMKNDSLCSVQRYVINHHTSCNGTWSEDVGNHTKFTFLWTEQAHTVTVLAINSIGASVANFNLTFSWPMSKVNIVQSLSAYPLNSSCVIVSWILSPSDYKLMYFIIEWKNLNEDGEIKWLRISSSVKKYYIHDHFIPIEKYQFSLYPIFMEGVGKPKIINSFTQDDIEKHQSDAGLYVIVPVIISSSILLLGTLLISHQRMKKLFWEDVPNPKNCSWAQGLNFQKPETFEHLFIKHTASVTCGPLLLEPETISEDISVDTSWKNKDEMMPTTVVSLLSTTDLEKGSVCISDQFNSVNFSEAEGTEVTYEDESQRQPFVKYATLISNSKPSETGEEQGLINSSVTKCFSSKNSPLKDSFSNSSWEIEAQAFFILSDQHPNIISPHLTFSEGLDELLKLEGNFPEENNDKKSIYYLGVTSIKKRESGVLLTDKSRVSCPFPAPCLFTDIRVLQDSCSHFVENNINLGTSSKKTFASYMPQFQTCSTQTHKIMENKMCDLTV

[6] = biological target: T3, full length human LEPR (amino acids 1-1165 of P48357, Isoform B) on cells (human, UniProt P48357 22-1165); test: cell-based or functional assay
T3 sequence: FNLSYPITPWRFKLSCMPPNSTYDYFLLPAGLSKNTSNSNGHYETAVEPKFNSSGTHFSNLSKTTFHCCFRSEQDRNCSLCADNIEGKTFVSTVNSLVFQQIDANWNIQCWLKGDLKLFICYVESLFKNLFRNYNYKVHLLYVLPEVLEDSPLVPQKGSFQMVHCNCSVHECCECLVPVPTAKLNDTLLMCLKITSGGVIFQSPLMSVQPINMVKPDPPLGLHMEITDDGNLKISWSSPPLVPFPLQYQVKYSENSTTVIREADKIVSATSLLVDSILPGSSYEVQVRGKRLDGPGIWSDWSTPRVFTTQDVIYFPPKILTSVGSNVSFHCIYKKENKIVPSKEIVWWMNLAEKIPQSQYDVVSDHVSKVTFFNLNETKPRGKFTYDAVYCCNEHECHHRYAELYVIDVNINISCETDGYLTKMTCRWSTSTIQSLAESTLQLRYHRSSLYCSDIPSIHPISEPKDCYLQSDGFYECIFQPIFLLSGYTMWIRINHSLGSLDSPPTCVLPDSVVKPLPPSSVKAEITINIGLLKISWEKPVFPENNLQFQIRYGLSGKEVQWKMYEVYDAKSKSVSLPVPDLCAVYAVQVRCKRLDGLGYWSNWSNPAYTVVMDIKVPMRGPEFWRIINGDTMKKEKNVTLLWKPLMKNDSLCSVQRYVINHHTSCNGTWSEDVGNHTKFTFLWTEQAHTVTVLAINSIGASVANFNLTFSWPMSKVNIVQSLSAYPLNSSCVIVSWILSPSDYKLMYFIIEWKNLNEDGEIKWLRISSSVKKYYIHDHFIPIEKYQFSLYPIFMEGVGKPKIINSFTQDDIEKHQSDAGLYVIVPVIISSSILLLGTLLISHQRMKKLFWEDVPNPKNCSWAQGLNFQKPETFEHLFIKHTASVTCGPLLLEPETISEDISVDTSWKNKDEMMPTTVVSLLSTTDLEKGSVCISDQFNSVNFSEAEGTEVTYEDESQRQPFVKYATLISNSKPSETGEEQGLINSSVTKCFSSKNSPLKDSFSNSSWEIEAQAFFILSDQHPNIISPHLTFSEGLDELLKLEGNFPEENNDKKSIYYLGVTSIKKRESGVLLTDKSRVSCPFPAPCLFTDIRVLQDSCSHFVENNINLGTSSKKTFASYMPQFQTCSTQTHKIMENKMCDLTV

[7] = biological target: T3, full length human LEPR (amino acids …); test: FACS, 70 nM Ab, HEK293/Stat3-luc/hLEPR-FL, no Leptin

rat LEPR extracellular domain expressed with a C-terminal myc-myc-hexahistidine tag (rLEPR.mmh), sequence (Q62959 other isoform, or with tags, fused parts or gaps): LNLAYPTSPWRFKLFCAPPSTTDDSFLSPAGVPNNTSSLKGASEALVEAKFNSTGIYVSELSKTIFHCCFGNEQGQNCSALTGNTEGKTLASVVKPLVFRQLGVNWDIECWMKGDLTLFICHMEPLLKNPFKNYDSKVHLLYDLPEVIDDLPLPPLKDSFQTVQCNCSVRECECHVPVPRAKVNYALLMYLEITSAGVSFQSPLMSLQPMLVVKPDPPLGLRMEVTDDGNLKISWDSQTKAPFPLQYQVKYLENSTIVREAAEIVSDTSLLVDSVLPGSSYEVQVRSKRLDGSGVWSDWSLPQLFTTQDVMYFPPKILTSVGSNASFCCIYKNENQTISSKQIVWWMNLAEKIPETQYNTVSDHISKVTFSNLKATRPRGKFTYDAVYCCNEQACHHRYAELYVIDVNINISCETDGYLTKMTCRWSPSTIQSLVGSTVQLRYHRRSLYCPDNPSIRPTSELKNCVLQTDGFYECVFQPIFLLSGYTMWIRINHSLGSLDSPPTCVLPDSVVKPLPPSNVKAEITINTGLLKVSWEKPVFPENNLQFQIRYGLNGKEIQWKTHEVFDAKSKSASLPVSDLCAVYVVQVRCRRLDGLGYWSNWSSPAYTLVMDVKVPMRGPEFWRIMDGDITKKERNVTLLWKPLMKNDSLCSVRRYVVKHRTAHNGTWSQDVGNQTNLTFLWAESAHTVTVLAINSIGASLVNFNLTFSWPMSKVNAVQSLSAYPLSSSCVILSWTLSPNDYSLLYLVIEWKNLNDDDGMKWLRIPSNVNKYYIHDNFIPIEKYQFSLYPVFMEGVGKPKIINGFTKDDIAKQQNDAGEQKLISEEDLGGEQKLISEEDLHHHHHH
mouse LEPR extracellular domain expressed with a C-terminal myc-myc-hexahistidine tag (mLEPR.mmh), sequence (P48356 other isoform, or with tags, fused parts or gaps): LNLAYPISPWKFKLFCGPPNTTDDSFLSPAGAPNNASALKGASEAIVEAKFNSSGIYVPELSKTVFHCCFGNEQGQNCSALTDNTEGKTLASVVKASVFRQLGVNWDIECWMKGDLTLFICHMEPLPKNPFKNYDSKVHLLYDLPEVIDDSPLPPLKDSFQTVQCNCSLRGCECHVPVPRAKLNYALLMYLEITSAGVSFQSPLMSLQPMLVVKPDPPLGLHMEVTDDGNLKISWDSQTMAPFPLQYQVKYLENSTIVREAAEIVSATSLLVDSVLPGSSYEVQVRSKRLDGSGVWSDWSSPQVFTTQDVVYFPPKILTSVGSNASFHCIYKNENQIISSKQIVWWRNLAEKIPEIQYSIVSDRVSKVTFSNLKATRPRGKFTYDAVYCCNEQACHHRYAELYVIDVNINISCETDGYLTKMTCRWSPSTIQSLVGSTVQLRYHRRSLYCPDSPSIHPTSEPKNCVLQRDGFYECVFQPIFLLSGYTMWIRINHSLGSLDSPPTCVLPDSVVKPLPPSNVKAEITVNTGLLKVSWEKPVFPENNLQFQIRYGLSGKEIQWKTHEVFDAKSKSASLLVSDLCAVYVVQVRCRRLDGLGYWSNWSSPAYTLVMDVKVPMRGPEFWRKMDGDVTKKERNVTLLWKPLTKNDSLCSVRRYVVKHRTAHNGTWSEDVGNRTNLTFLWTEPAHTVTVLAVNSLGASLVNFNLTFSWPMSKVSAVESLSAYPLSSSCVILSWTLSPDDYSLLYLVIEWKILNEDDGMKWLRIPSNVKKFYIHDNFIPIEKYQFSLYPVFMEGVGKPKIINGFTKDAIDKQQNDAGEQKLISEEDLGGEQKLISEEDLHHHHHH

binding result [1]	binding result [2]	EC50 (M); STAT3-Luc reporter, IMR-32/STAT3-Luc/MfLEPR cells [3]	Binding Ratio (normalized to unstained) [4]	EC50 (read off the curve), pSTAT3 Y705/STAT3 densitometry [5]	% activation; IMR-32/LEPR with 200 pM human Leptin [6]	% activation; IMR-32/LEPR without human Leptin [6]	EC50 (M); IMR-32/LEPR with 200 pM human Leptin [6]	EC50 (M); IMR-32/LEPR without human Leptin (STAT3-Luc reporter) [6]	Binding Ratio (normalized to unstained) [7]	Binder
no binding (tested: 100 nM)	no binding (tested: 100 nM)	2.66e-10 M	707 fold	~5e-10 M	88%	68%	5.19e-11 M	6.19e-11 M	42 fold	H4H16650P2 (antibody, V domains shown) VH: QVQLVESGGGVVQPGKSLRLSCVASGFTFSSDAMYWVRQAPGKGLEWVAVIYYDGNYQYYEDSVKGRFTISRDNSQNTLDLQMNSLRVDDTAVYFCARLNWDYWYLDLWGRGTLVTVSS VL: not shown
no binding (tested: 100 nM)	no binding (tested: 100 nM)	–	–	–	76%	5%	2.02e-11 M	1.49e-09 M	–	H4H18438P2 (antibody, V domains shown) VH: QVQLVESGGGVVQPGRSLRLSCAASGFSFNTYGMHWVRQAPGKGLEWVTIIWYDGSIKYYADSVKGRFTISRDNSKNTLYLQMNSLRAEDTAVYYCARGGYSGYLYFDYWGQGTLVTVSS VL: not shown
no binding (tested: 100 nM)	no binding (tested: 100 nM)	–	–	–	87%	5%	5.23e-10 M	1.53e-10 M	–	H4H18417P2 (antibody, V domains shown) VH: QVQLVESGGGVVQPGRSLRLSCAASGFTFSTYGMHWVRQAPGKGLEWVSVISYDESNKYYADSVKGRFTISRDNSKNALYLQMNSLRNEDTAVYYCARDRPFGLVTGWFDPWGQGTLVTVSS VL: not shown
no binding (tested: 100 nM)	no binding (tested: 100 nM)	–	–	–	66%	13%	5.23e-11 M	2.12e-10 M	–	H4H18449P2 (antibody, human IgG4, V domains shown, human IgG4 Fc) VH: EVQLVESGGGLVQPGGSLRLSCVASGFTFNKYDMHWVRQTTGKGLEWVSGIDTDGDTYYPGSVKGRFTISRENAENSLYLQMNGLRVGDTAVYYCARWPWSGFYGAFDIWGQGTMVTVSS VL: not shown
